Among the data in US20250002564A1 are kon, Kd and koff values, retold here.

Bounds are passed on as bounds.

Assay [1] has as its target mouse FcRn (mouse) (UniProt Q61559).
The target is the same in assay [2]. As to the kind of experiment: pH 5.6.
A further assay concerns the target mouse FcγRI (mouse) (UniProt P26151).

Sequence of mouse FcRn (mouse) (Q61559 22-297 limits assumed, chain 1 of 2): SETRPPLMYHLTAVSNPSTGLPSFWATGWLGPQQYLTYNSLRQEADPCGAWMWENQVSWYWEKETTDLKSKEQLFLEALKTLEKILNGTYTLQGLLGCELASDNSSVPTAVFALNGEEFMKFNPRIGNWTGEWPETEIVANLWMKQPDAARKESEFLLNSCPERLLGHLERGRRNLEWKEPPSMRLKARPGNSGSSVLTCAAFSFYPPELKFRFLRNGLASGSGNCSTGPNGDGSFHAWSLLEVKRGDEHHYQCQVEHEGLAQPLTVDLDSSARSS
Sequence of mouse FcRn (mouse) (chain, as listed by the source limits assumed, chain 2 of 2): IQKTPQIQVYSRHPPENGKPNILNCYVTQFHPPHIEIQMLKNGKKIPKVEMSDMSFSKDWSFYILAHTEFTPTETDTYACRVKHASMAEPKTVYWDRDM
Sequence of mouse FcγRI (mouse) (P26151 25-297 limits assumed): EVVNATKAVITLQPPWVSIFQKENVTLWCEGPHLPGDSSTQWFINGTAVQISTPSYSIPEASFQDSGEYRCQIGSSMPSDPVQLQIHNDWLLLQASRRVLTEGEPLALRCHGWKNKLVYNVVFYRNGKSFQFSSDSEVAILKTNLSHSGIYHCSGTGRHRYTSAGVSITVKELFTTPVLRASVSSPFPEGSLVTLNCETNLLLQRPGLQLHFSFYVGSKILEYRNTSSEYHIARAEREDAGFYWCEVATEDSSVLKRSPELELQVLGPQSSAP

Substance mouse surrogate Multabody with LALAP Fc had a kon in the assay with mouse FcRn (mouse) [1] of 2.4e+06 M⁻¹ s⁻¹. In the assay with mouse FcRn (mouse) [2], this substance had a Kd below 1 pM and a koff below 1e-07 s⁻¹.

Take “mouse surrogate Multabody (HD37 IgG2a scFab and scFc on mouse apoferritin light chain), wild-type Fc”: the kon with mouse FcRn (mouse) [1] came out at 682000 M⁻¹ s⁻¹. Also, in the assay with mouse FcγRI (mouse), the Kd was below 1 pM, the koff is below 1e-07 s⁻¹ and the kon came out at 939000 M⁻¹ s⁻¹. Also, in the assay with mouse FcRn (mouse) [2], the Kd is below 1 pM and the off-rate (koff) was below 1e-07 s⁻¹.
